In patent publication EP4722237A1, “METHOD FOR DETECTING BIOLOGICAL ACTIVITY OF INSULIN OR ANALOGUE THEREOF AND KIT” (Sunshine Lake Pharma Co., Ltd., priority 2023, dated 2024):

Key:
insulin receptor B = target: T1, insulin receptor B (Homo sapiens, UniProt P06213); test: Luciferase reporter gene detection method (HEK293/IRB-STAT5b-03-Luciferase cells, luminescence signal); type: cell-based; conditions: after stimulation of cells
T1 construct: expressed in transfected cells; host or cells: HEK293 (HEK293-IRB monoclonal line; HEK293/IRB-STAT5b-03-Luciferase 001#clone)
Experimental: ① 0.6 mM insulin glargine reference solution: An appropriate amount of insulin glargine reference was weighed, dissolved completely in 0.01 M HCL and diluted to 0.6 mM, and mixed thoroughly.
② 0.6 mM Insulin Glargine Test Solution: An appropriate amount of insulin glargine injection solution was taken.
③ 15000 nM Reference/Test Solution Stock Solution: 780 µl of 0.01 M hydrochloric acid solution was added to 20 µl of a 0.6 mM insulin glargine reference/test solution and mixed thoroughly.
④ […] control/test solution: 780 µl of DMEM medium containing 1% FBS (fetal bovine serum) was added to 20 µl of a 15000 nM reference/test solution.
⑤ Serial dilutions of control/test compounds: Dilutions were performed in a 96-well plate according to the method shown in Table 1.
The culture flask was taken out of the incubator, the culture medium was discarded, and 2 ml of DPBS (sterile saline) buffer was added and gently washed twice. 1 ml of DPBS and 1 ml of trypsin solution were slowly added along the cell-free side of the flask to digest the cells for approximately 2 min. […]
After 15 h of incubation, the 384-well plate was removed from the incubator and allowed to stand at room temperature for approximately 5 min. […] After 3 minutes, the luminescence signal was detected in the LUM mode on a multi-functional microplate reader. […]

insulin IR β receptor = insulin IR β receptor (Homo sapiens, UniProt P06213); test: HTRF kit method (insulin receptor phosphorylation); type: cell-based; conditions: specificity comparison, Figure 6
Description: Currently, commercial kits such as HTRF (homogeneous time-resolved fluorescence) and AlphaElisa are commonly used to assess insulin activity. These assays measure insulin IR β receptor phosphorylation levels to characterize insulin's cellular bioactivity. On the one hand, commercial test kits such as HTRF and AlphaElisa are expensive and have high detection costs; on the other hand, technical means such as HTRF and AlphaElisa are relatively complicated to operate, usually requiring the addition of insulin drugs to co-incubate with cells, then adding lysis buffer for incubation and lysis, and then adding the corresponding phosphorylated antibody solution for incubation, and finally testing. Under normal circumstances, the sample volume of each step of these kits needs to be controlled to 4~8 µl, which requires a high level of operational skills of the analyst.
Two different analysts used the same batch of test products (prepared in 6 parallel portions) and reference products to perform tests using the HTRF kit method on different dates.

dose-effect relationship (insulin receptor B): no obvious dose-effect relationship
response in HTRF kit assay (insulin IR β receptor): no response
Substance: liraglutide
